Numbering of substitutions follows the chain as printed. Numbers in names are those of the source.
B1: GluA2_(C589A-Thr) K663C (receptor, rat)
chain: VSSNSIQIGGLFPRGADQEYSAFRVGMVQFSTSEFRLTPHIDNLEVANSFAVTNAFCSQFSRGVYAIFGFYDKKSVNTITSFCGTLHVSFITPSFPTDGTHPFVIQMRPDLKGALLSLIEYYQWDKFAYLYDSDRGLSTLQAVLDSAAEKKWQVTAINVGNINNDKKDETYRSLFQDLELKKERRVILDCERDKVNDIVDQVITIGKHVKGYHYIIANLGFTDGDLLKIQFGGANVSGFQIVDYDDSLVSKFIERWSTLEEKEYPGAHTATIKYTSALTYDAVQVMTEAFRNLRKQRIEISRRGNAGDCLANPAVPWGQGVEIERALKQVQVEGLSGNIKFDQNGKRINYTINIMELKTNGPRKIGYWSEVDKMVVTLTELPSGNDTSGLENKTVVVTTILESPYVMMKKNHEMLEGNERYEGYCVDLAAEIAKHCGFKYKLTIVGDGKYGARDADTKIWNGMVGELVYGKADIAIAPLTITLVREEVIDFSKPFMSLGISIMIKKPQKSKPGVFSFLDPLAYEIWMCIVFAYIGVSVVLFLVSRFSPYEWHTEEFEDGRETQSSESTNEFGIFNSLWFSLGAFMQQGADISPRSLSGRIVGGVWWFFTLIIISSYTANLAAFLTVERMVSPIESAEDLSKQTEIAYGTLDSGSTKEFFRRSCIAVFDKMWTYMRSAEPSVFVRTTAEGVARVRKSKGKYAYLLESTMNEYIEQRKPCDTMKVGGNLDSKGYGIATPKGSSLGTPVNLAVLKLSEQGVLDKLKNKWWYDKGECGAKDSGSKEKTSALSLSNVAGVFYILVGGLGLAMLVALIEFCYKSRAEAKRMKVAKNPQNINPSSSQNSQNFATYKEGYNVYGIESVKIGLVPR
notes: signal peptide in the construct; AMPA receptor subunit GluA2, flip form (GluA2i), rat, NP_058957, full length including the native signal peptide; extra residues left from the thrombin cleavage site at the distal C-terminus after digestion; Single cysteine substitution in m1, LBD dimer-dimer interface; source: HEK293 GnTI- cells, baculovirus-transduced (BacMam), purified (streptactin resin, …)
B2: GluA2_(C589A-Thr) I664C (receptor, rat)
chain: B1 chain with C663K, I664C
notes: as for B1
B3: GluA2_(C589A-Thr) A665C (receptor, rat)
chain: B1 chain with C663K, A665C
notes: as for B1
B4: GluA2_(C589A-Thr) A621C (receptor, rat)
chain: B1 chain with A621C, C663K
notes: signal peptide in the construct; AMPA receptor subunit GluA2, flip form (GluA2i), rat, NP_058957, full length including the native signal peptide; extra residues left from the thrombin cleavage site at the distal C-terminus after digestion; source: HEK293 GnTI- cells, baculovirus-transduced (BacMam), purified (streptactin resin, thrombin digestion, SEC Superose 6); not shown: eGFP, C-terminal, …
B5: GluA2_(C589A-Thr) R628C (receptor, rat)
chain: B1 chain with R628C, C663K
notes: signal peptide in the construct; AMPA receptor subunit GluA2, flip form (GluA2i), rat, NP_058957, full length including the native signal peptide; extra residues left from the thrombin cleavage site at the distal C-terminus after digestion; Single cysteine substitution in m1, LBD-TMD linker region (M3-S2 linker); source: HEK293 GnTI- cells, baculovirus-transduced (BacMam), purified (streptactin …)
B6: GluA2_(C589A-Thr) (receptor, rat)
chain: B1 chain with C663K
notes: signal peptide in the construct; AMPA receptor subunit GluA2 (GluRB, GluR2), flip form (GluA2i), rat, NP_058957, full length including the native signal peptide; extra residues left from the thrombin cleavage site (GLVPRG) at the distal C-terminus after digestion; Tetrameric membrane protein in C12M detergent with lipid; Purified under reducing conditions; also called WT; parent; source: HEK293 …

What was measured:
Assay in all cases: SEC; FSEC of ~10% of the protein dialysed into non-reducing buffers with the various ligands; 150 mM NaCl, 20 mM Tris-HCl pH 8.0, 1 mM C12M, lipid
[1] = biological target: GluA2_(C589A-Thr) I211C (rat)
[2] = biological target: GluA2_(C589A-Thr) V215C (rat)
[3] = biological target: GluA2_(C589A-Thr) G212C (rat)
[4] = biological target: GluA2_(C589A-Thr) I209C (rat)
[5] = biological target: the molecule itself

Row | Molecule | stoichiometry N [5] | further results
1 | GluA2_(C589A-Thr) I211C (receptor) |  | stoichiometry N [1]: 4
2 | GluA2_(C589A-Thr) V215C (receptor) |  | stoichiometry N [2]: 4
3 | GluA2_(C589A-Thr) G212C (receptor) |  | stoichiometry N [3]: 4
4 | GluA2_(C589A-Thr) I209C (receptor) |  | stoichiometry N [4]: 4
5 | B1 | 4 | 
6 | B2 | 4 | 
7 | B3 | 4 | 
8 | B4 | 4 | 
9 | B5 | 4 | 
10 | B6 | 4 | 

Reference: paper PMC4703952, “Probing Intersubunit Interfaces in AMPA-subtype Ionotropic Glutamate Receptors” (Scientific Reports, 2016)
